Assay results as given in PMC3696691, “Zinc-induced Self-association of Complement C3b and Factor H” (The Journal of Biological Chemistry, 2013).

Molecular target: T1, C3b (human, UniProt P01024 23-667; P01024 749-1663, free SH group of the C3b thioester blocked with 20 mM iodoacetamide)
T1 construct: Complement C3 beta chain, human; Complement C3b alpha' chain, human: the alpha chain without the ANA/C3a domain; here cut by trypsin; 12 domains; calculated mass 179.3 kDa; also called active C3b; source: made from C3 purified from human plasma by trypsin (1% w/w, 120 s, 37 °C), iodoacetamide added, purified on Superose 6
Assay: AUC; sedimentation velocity, 50,000 rpm, 20 °C; 1:1 mixture of 5.5 uM C3b and 5.5 uM FH incubated at 4 °C overnight; no zinc
Details: both partners purified

stoichiometry N: 1
B1: complement Factor H (FH), wild-type (natural protein, human, UniProt P08603 19-1231, looked up)
chain: EDCNELPPRRNTEILTGSWSDQTYPEGTQAIYKCRPGYRSLGNVIMVCRKGEWVALNPLRKCQKRPCGHPGDTPFGTFTLTGGNVFEYGVKAVYTCNEGYQLLGEINYRECDTDGWTNDIPICEVVKCLPVTAPENGKIVSSAMEPDREYHFGQAVRFVCNSGYKIEGDEEMHCSDDGFWSKEKPKCVEISCKSPDVINGSPISQKIIYKENERFQYKCNMGYEYSERGDAVCTESGWRPLPSCEEKSCDNPYIPNGDYSPLRIKHRTGDEITYQCRNGFYPATRGNTAKCTSTGWIPAPRCTLKPCDYPDIKHGGLYHENMRRPYFPVAVGKYYSYYCDEHFETPSGSYWDHIHCTQDGWSPAVPCLRKCYFPYLENGYNQNYGRKFVQGKSIDVACHPGYALPKAQTTVTCMENGWSPTPRCIRVKTCSKSSIDIENGFISESQYTYALKEKAKYQCKLGYVTADGETSGSITCGKDGWSAQPTCIKSCDIPVFMNARTKNDFTWFKLNDTLDYECHDGYESNTGSTTGSIVCGYNGWSDLPICYERECELPKIDVHLVPDRKKDQYKVGEVLKFSCKPGFTIVGPNSVQCYHFGLSPDLPICKEQVQSCGPPPELLNGNVKEKTKEEYGHSEVVEYYCNPRFLMKGPNKIQCVDGEWTTLPVCIVEESTCGDIPELEHGWAQLSSPPYYYGDSVEFNCSESFTMIGHRSITCIHGVWTQLPQCVAIDKLKKCKSSNLIILEEHLKNKKEFDHNSNIRYRCRGKEGWIHTVCINGRWDPEVNCSMAQIQLCPPPPQIPNSHNMTTTLNYRDGEKVSVLCQENYLIQEGEEITCKDGRWQSIPLCVEKIPCSQPPQIEHGTINSSRSSQESYAHGTKLSYTCEGGFRISEENETTCYMGKWSSPPQCEGLPCKSPPEISHGVVAHMSDSYQYGEEVTYKCFEGFGIDGPAIAKCLGEKWSHPPSCIKTDCLSLPSFENAIPMGEKKDVYKAGEQVTYTCATYYKMDGASNVTCINSRWTGRPTCRDTSCVNPPTVQNAYIVSRQMSKYPSGERVRYQCRSPYEMFGDEEVMCLNGNWTEPPQCKDSTGKCGPPPPIDNGDITSFPLSVYAPASSVEYQCQNLYQLEGNKRITCRNGQWSEPPKCLHPCVISREIMENYNIALRWTAKQKLYSRTGESVEFVCKRGYRLSSRSHTLRTTCWDGKLEYPTCAKR
notes: Complement factor H, human, 20 SCR domains (SCR-1/20); Calculated mass 154.4 kDa; source: gel filtration
